Bridge positions count the residues as written; N and C are the ends. Square brackets hold non-standard residues; d marks the D form. Ends that are not written are not given here. Ahx = NCCCCCC(=O)O

Series [1] has as its target T1, PSA (Homo sapiens, UniProt P07288). Description: Enzyme activity of PSA with chromogenic substrate S-2586. In kind it is biochemical. On the set-up: PSA was purified from human seminal fluid as described previously (3); from tissue; host or cells: human seminal fluid. To be noted: for effect of derivatization or labeling on PSA binding activity, read as effect on PSA enzyme activity (in words): PSA (0.33 mM / 0.33 μM as printed); for effect of derivatization or labeling on PSA binding activity, read as effect on PSA enzyme activity (in words) / effect on the enzyme activity of PSA (in words): S-2586; for effect on the enzyme activity of PSA (in words): synthetic peptides in 100-fold molar excess. On the procedure: The enzyme activity of PSA was studied in the presence of peptides alone or together with Zn^2+ by using the chymotrypsin substrate S-2586 (MeO-Suc-Arg-Pro-Tyr-pNA) (Chromogenix, Mölndal, Sweden). […] PSA (333 nM) was incubated with a 1-100-fold molar excess of GST-peptide or 100-fold excess of synthetic peptide in TBS buffer, pH 7.8 containing 0.5 g/L BSA for 1 h at 22° C. The effect of Zn^2+ on the enzyme activity of PSA was studied by including 1-200 μM of ZnCl2 in the reaction buffer. The combined effect of peptides and Zn2+ on the enzyme activity of PSA was studied by incubating PSA (333 nM) with peptide (333 nM) in the buffer containing 1-200 μM Zn^2+ for 1 h. After addition of substrate to a final concentration 0.2 mM, the absorbance was monitored at 5-min intervals for 2 h at 405 nm on a Labsystems Multiskan MCC/340 photometer (Labsystems, Helsinki, Finland). As a control, the effect of wild type GST on the enzyme activity of PSA was tested.
In the experiments, PSA (0.33 μM) was incubated with increasing concentrations of GST-C-4 (0-100-fold molar excess) for 1 h, after which the chromogenic substrate S-2586 was added and enzyme activity was monitored by measuring the absorbance at 405 nm. Data represent mean values from duplicate wells ±SE.
PSA (0.33 μM) was incubated with chemically synthesized peptides (100-fold molar excess) for 1 h, after which the chromogenic substrate S-2586 was added and enzyme activity was monitored by measuring the absorbance at 405 nm.
Because zinc is known to inhibit the enzyme activity of PSA, we further characterized the effect of GST-peptides on the enzyme activity of PSA by assessing the combined effect of peptides and Zn^2+. […] The effect of GST-C-4 and Zn^2+ on enzyme activity was determined by incubating PSA (0.33 μM) with the same molar concentration of GST-C-4 and various concentrations of Zn^2+. The reaction was monitored by measuring absorbance at 405 nm after addition of the chromogenic substrate S-2586. […] Data represent mean values from duplicate wells ±SE.
(§1) Data represent mean values from duplicate wells ±SE.
As control the enzyme activity of PSA alone was measured.
as §1
20 μg of the peptide was iodinated by the Iodogen method. After iodination the peptide was purified by using C18 Sep-Pak column.

Series [2] addresses T1, PSA. Description: GST-peptide IFMA: binding of GST-peptides to PSA captured by MAb 5E4. Details: PSA was purified from human seminal fluid as described previously (3); from tissue; host or cells: human seminal fluid. Particulars: GST fusion proteins. On the procedure:
After washing the binding of GST-peptide was quantified by IFMA using an Eu-labelled anti GST antibody as tracer. Data represent mean values from duplicate wells ±standard error (SE).
The solid phase antibodies used in the IFMAs were coated onto microtitration wells at a concentration of 5 μg/mL in TBS for 16 h at 22° C., the solution was discarded and the wells were saturated with 10 g/L bovine serum albumin in TBS for 3 h at 22° C. The antibodies used as tracers were labeled with a Eu^3+ chelate as described previously (26). The assay buffer was 50 mM Tris-HCL, pH 7.7, 150 mM NaCl, 33.3 μM bovine serum albumin, 1 μM bovine globulin.
The binding of individual phage clones to PSA was tested by IFMA (phage IFMA). In the phage IFMA, about 30 ng of PSA was added to MAb 5E4 coated wells for 1 h. After washing (Buffer: 150 mM NaCl, 7.7 mM NaN3, 0.2 g/L Tween 20), 15 μL of phage and 200 μl assay buffer was added. After incubation for 1 h, the wells were washed and filled with 200 μl of assay buffer containing 50 ng europium-labeled anti phage monoclonal antibody recognizing the M13 coat protein of the phage. After incubation for 60 min, the wells were washed 4 times, and enhancement solution (EG&G-Wallac) was added. The fluorescence was quantified with a 1234 DELFIA Research fluorometer (EG&G-Wallac). Binding of GST-peptide to PSA was determined by an IFMA (GST-peptide IFMA) similar to the one for phage peptides except that Eu^3+-labeled antibody to GST was used. Various amounts of GST-peptide or wild type GST were added to wells containing captured PSA in 200 μL of assay buffer and incubated for 1 h. To test the effect of Zn^2+ on the binding between GST-peptide and PSA, various concentrations of Zn^2+ (1-200 μM) were added to the buffer in the incubation step of GST-peptide and PSA. In competition experiments, GST-peptide (167 nM) or wild type GST were first incubated with increasing amounts of PSA (0-333 nM) in 0.5% BSA-TBS buffer for 60 min, then added to wells containing PSA captured by MAb 5E4. After incubation for 1 h the wells were washed and Eu^3+-labeled anti GST antibody was added. After further incubation and washing the bound fluorescence was measured as described above. When assessing the binding of the GST-peptides to other proteinases, including chymotrypsin, cathepsin G, trypsin, and kallikrein, these proteinases were captured by their specific antibodies coated to the microtitration well. Recombinant hK2 was captured by MAb 5E4, which is known to bind hK2 (24). For assessing the binding of the GST-peptides with complexes of PSA, including PSA-ACT and PSA-α1-protease inhibitor (PSA-API) (28), the complexes were captured by antibodies against ACT and API, respectively. After capturing the various proteinases or PSA complexes, GST-peptide was added and binding was monitored as described above for the GST-peptide IFMA.

For series [3], the target named is T1, PSA. Description: PSA activity measurements with modified peptides, substrate S-2586 (Example 5). To be noted: for activity of modified peptide (active / inactive): from PSA-peptide/PSA ratio; for effect of modification on the activity of the peptide (in words): compared with parent A-1, B-2 or C-4. On the set-up: PSA was purified from human seminal fluid as described previously (3); from tissue; host or cells: human seminal fluid; key to activity of modified peptide (active / inactive): PSA-peptide/PSA ratio above 1.1 was interpreted to be active; below 1.1 as inactive. In kind it is biochemical. Here is the method: PSA activity measurements: The effect of different peptides on the activity of PSA was studied by using chymotrypsin substrate S-2586 (MeO-Suc-Arg-Pro-Tyr-pNA) (Chromogenix, Mölndal, Sweden). 77 pmoles (2 μg) of PSA, substrate and 10 μmoles of different peptides were incubated in Tris-buffer (10 mM Tris and 150 mM NaCl at pH 7.8) with 0.2 mM concentration of the substrate at room temperature. PSA reaction without any peptide was used as basic level control. Reaction was measured after 60 minutes incubation at […] using Multiscan RC photometer (Labsystems, Finland). The effect of the peptides was calculated as a ratio from the OD value of PSA-peptide complex to PSA alone after 60 minutes incubation.

T1 sequence (P07288 25-261): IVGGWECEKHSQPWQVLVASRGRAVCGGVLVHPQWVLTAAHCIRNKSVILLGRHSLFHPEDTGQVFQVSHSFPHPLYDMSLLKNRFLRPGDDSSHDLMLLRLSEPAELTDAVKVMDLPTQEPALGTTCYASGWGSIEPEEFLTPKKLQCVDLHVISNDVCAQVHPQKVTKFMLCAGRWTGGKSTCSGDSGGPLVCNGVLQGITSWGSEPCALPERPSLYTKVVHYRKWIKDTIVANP

“1251-labeled C4: C4-peptide (CVAYCIEHHCWTC) iodinated by the Iodogen method (not fully specified (residue 4, bridges); cysteine pairing not given here)”: the “effect of derivatization or labeling on PSA binding activity, read as effect on PSA enzyme activity (in words)” value in the series with PSA [1] (30-fold molar excess) is listed as “almost completely destroyed its binding activity”. With CLSTCAQSCRISC [Peptide D-1], the “binding to PSA in GST-peptide IFMA (in words)” value with PSA [2] is given as “did not show significant binding”. With “CVAYAIQHHC (disulfide 1-10 (inferred)) [Peptide C-4-4]”, the “activity of modified peptide (active / inactive)” value (“activity … (active / inactive)” below) with PSA [3] was “inactive”. Regarding CVAYCIEHHCATC [Peptide C-4-6], in the series with PSA [3], the “activity … (active / inactive)” value was “inactive”. With CVAYCIQHHCWTC [Peptide C-4-3], in the series with PSA [3], the “effect of modification on the activity of the peptide (in words)” value is “did not affect” and the “activity … (active / inactive)” value is “active”. On to “CVFAHNYNALVC (disulfide 1-12 (inferred)) [Peptide B-2-3]”, for which the “effect of modification on the activity of the peptide (in words)” value in the series with PSA [3] is on record as “activity remained”. Same read-out and setting: with “CVFAHNYNYLVC (disulfide 1-12 (inferred)) [Peptide B-2-2]” the entry was “did not affect”; with “CVFTSNYAFC (disulfide 1-10 (inferred)) [Peptide A-1-4]”, “did not affect”. Same read-out and setting: the same measure for “CVFTSNYAYC (disulfide 1-10 (inferred)) [Peptide A-1-2]”: “did not affect”. The same measure, in the same setting: with “CVFTSNYNYC (disulfide 1-10 (inferred)) [Peptide A-1-3]” the entry was “did not affect”. Consider “Eu-labelled C4-peptide: C4 peptide labelled with Eu-chelate, C18 fractions 26-28 (CVAYCIEHHCWTC; disulfide 1-13, 5-10; also: Eu-chelate label, site not given here)”, for which the “effect of Eu-labelled peptide fractions on enzyme activity of PSA” value in the series with PSA [1] (PSA 0.33 μM, 100 μL of C18 fractions 26-28) is “enhanced the enzyme activity of PSA strongly”. As to “SKSKSKS—aca-CVAYCIEHHCWTC (SKSKSKS[Ahx]CVAYCIEHHCWTC; not fully specified (bridges); printed as SKSKSKS—aca-CVAYCIEHHCWTC; cysteine pairing not given here) [SKSKSKS (SEQ ID NO:47)-tailed C4]”, in the series with PSA [1] (30-fold molar excess), the “effect of derivatization or labeling on PSA binding activity, read as effect on PSA enzyme activity (in words)” value is on record as “did not affect the binding activity”.

Turning to “Tc99m-labeled C4: reduced C4-peptide labeled with 99mTc between thiol-sulfurs (HDP method) (CVAYCIEHHCWTC; also: 99mTc complexed between reduced thiol sulfurs (HDP method))”, the “reduction of binding by technetium labeling” value with PSA [1] (PSA 0.33 μM, 30-fold molar excess, compared with unlabelled C4) is reported as “about 50%”. For the substance “Wild type GST: wild type glutathione S-transferase without inserted peptide, control [reference compound]”, in the series with PSA [2], the “binding to PSA in GST-peptide IFMA (in words)” value is listed as “did not bind”. Besides, the figures for the “effect on the enzyme activity of PSA (in words)” value with PSA [1] and with PSA [1] (listed as wild type GST) were “did not affect” and “no effect”, respectively.

The values above are taken from patent US7414023B2, “Peptide ligands for prostate specific antigen” (Licentia Ltd., priority 2000, dated 2008).
